Test results published in article PMC12775124, “CUL4A-DDB1-DCAF10 is an N-recognin for N-terminally acetylated Src kinases” (Nature Communications, 2026).

T1: GST-DCAF10 (UniProt Q5QP82 1-559)
T1 construct: DCAF10, full length; the UniProt entry is printed for the AlphaFold 3 model of the same protein; cloning and purification are in the Supplementary Methods; also called purified full-length GST-DCAF10; source: purified
T1 sequence (looked up): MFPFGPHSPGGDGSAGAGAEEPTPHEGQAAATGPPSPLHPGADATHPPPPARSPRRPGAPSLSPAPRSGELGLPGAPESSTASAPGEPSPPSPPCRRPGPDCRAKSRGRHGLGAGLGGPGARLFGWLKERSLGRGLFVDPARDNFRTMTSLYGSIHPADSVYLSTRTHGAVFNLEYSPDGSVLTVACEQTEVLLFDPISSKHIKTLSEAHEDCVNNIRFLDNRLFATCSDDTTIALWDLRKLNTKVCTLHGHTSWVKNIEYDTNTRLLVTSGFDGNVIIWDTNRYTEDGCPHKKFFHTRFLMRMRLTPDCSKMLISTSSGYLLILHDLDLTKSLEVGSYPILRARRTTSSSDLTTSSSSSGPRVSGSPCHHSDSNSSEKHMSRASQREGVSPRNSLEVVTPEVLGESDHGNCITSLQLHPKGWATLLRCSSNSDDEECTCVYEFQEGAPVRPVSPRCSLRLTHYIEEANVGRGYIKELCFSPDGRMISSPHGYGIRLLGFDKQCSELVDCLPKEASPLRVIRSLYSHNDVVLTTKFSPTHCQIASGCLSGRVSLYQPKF

T2: Ac-Lyn^G2A peptide (human, UniProt P07948 2-11, G2A)
T2 construct: Lyn, N-terminal 10-mer without the initiator Met, G2A; Lys3 spacer that carries the C-terminal biotin; also called Ac-Ala peptide; source: synthetic peptide
T2 peptide: Ac-ACIKSKGKDSKKK-biotin

B1: Nt-acetylated Lyn peptide (peptide)
peptide: Ac-GCIKSKGKDSKKK-biotin
notes: Lyn, N-terminal 10-mer without the initiator Met; Lys3 spacer that carries the C-terminal biotin; also called Nt-Ac Lyn; Ac-Lyn; source: synthetic peptide
B2: Nt-acetylated Src peptide (peptide)
peptide: Ac-GSNKSKPKDAKKK-biotin
notes: Src, N-terminal 10-mer without the initiator Met; Lys3 spacer that carries the C-terminal biotin; also called Nt-Ac Src; Ac-Src; source: synthetic peptide

Assays:
GST-DCAF10 = target: T1, GST-DCAF10; test: pull-down; Nt-peptides bound to streptavidin beads incubated with purified GST-DCAF10 or GST alone; Western blots against GST, DCAF10 and streptavidin; n = 3; details: both partners purified
[1] = target: B1; test: affinity purification with mass spectrometry; biotinylated 10-mer Nt-peptides on magnetic streptavidin beads incubated with HeLa lysate; retained proteins digested on bead and quantified label-free by LC-MS (DIA); pairwise comparison of two peptides; n = 3; details: one partner purified
Ac-Lyn^G2A peptide = target: T2, Ac-Lyn^G2A peptide; test: as above; details: one partner purified
[2] = target: B2; test: as above; details: one partner purified

Binder	binding result (GST-DCAF10)	fold stronger than Ac-THOC7 [1]	fold lower than the Ac-Gly peptide (Ac-Lyn^WT) (Ac-Lyn^G2A peptide)	log2 fold change (Nt-Ac against Nt-free Src peptide, Fig. 1c) [2]
B1	binds			
DDB1- and CUL4A-associated factor 10 (natural protein, human (endogenous in HeLa and DLD-1), UniProt Q5QP82 1-559, looked up, DCAF10, endogenous protein of human cell lysates; also called DCAF10; WDR32; source: endogenous, HeLa lysate; endogenous, DLD-1 Lyn KO Flp-In T-REx cell lysate) MFPFGPHSPGGDGSAGAGAEEPTPHEGQAAATGPPSPLHPGADATHPPPPARSPRRPGAPSLSPAPRSGELGLPGAPESSTASAPGEPSPPSPPCRRPGPDCRAKSRGRHGLGAGLGGPGARLFGWLKERSLGRGLFVDPARDNFRTMTSLYGSIHPADSVYLSTRTHGAVFNLEYSPDGSVLTVACEQTEVLLFDPISSKHIKTLSEAHEDCVNNIRFLDNRLFATCSDDTTIALWDLRKLNTKVCTLHGHTSWVKNIEYDTNTRLLVTSGFDGNVIIWDTNRYTEDGCPHKKFFHTRFLMRMRLTPDCSKMLISTSSGYLLILHDLDLTKSLEVGSYPILRARRTTSSSDLTTSSSSSGPRVSGSPCHHSDSNSSEKHMSRASQREGVSPRNSLEVVTPEVLGESDHGNCITSLQLHPKGWATLLRCSSNSDDEECTCVYEFQEGAPVRPVSPRCSLRLTHYIEEANVGRGYIKELCFSPDGRMISSPHGYGIRLLGFDKQCSELVDCLPKEASPLRVIRSLYSHNDVVLTTKFSPTHCQIASGCLSGRVSLYQPKF		~57 fold	15 fold	~5 log2
Ac-GCVQCKDKEAKKK-biotin (cysteine pairing not given here, Fyn, N-terminal 10-mer without the initiator Met; Lys3 spacer that carries the C-terminal biotin; also called Nt-Ac Fyn; Ac-Fyn; source: synthetic peptide) [Nt-acetylated Fyn peptide]	binds			
B2	binds			
